Results on 14 sequences are retold here after patent US20230055235.

Data set [1] concerns the target T1, PD-L1 (programmed death-ligand 1) (Homo sapiens?) (UniProt Q9NZQ7). In words: inhibition. The conditions noted are these: PD-1/PD-L1 binding ELISA.
Data set [2] addresses T1, PD-L1 (programmed death-ligand 1). In words: filter. Conditions: 37 C.

T1 sequence (Q9NZQ7 19-238): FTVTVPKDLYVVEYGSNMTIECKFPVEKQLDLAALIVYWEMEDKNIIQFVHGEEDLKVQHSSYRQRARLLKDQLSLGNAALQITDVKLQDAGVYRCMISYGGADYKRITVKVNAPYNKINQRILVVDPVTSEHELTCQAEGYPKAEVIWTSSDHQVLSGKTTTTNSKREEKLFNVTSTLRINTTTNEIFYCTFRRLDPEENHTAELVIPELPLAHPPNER

In the case of “ATGAAAAGTTTTTGATTGTACCTTAGTGCACTCAACAGTG [PL019]”, the IC50 in data set [1] (Bz-dU at every n) is 15.3 nM.

“GAGTGACCGTCTGCCTGTGTATGCCGCACGATCGCCCTATTTTGCGAGTTTAACTGACAGCCACACCACCAGCC [PL028]” came in with a Kd in data set [2] (Bz-dU at every n, Bmax 0.06) of 1.36 nM.

Consider ATGAAAAGTTTTTGATTGTACCTTAGTGC [PL004], for which the IC50 in data set [1] (Bz-dU at every n) is 7 nM.

In the case of “GCCTGATGAAAAGTTTTTGATTGTACCTTAGTGCACTCAACAGTGC [PL017]”, the IC50 in data set [1] (Bz-dU at every n) turned out to be 4 nM.

Consider “GAGTGACCGTCTGCCTGATGAAAAGTTTTTGATTGTACCTTAGTGCACTCAACAGTGCAGCCACACCACCAGCC [PL001]”, for which the IC50 worked out at 6 nM in data set [1] (5-(N-benzylcarboxamide)-2'-deoxyuridine (Bz-dU) at every n) and 10.5 nM in data set [1] (5-(N-benzylcarboxamide)-2'-deoxyuridine (Bz-dU) at every n, repeat experiment). In data set [2] (5-(N-benzylcarboxamide)-2'-deoxyuridine (Bz-dU) at every n, Bmax 0.07), this sequence yielded a Kd of 1.1 nM.

“TGTATGCCGCACGATCGCCCTATTTTGCGAGTTTACTCA [PL006]” came in with an IC50 in data set [1] (Bz-dU at every n) of 9.6 nM.

As to AAGTTTTTGATTGTACCTTAGTGC [PL009], in data set [1] (Bz-dU at every n), the IC50 was found to be 4.6 nM.

In data set [2] (Bz-dU at every n, Bmax 0.10), “GAGTGACCGTCTGCCTGCCATTTCCTGCTTGCTCTTCCTCCTTTATTTTTCACCTTTCAGCCACACCACCAGCC [PL029]” had a Kd of 243 nM.

Take “ATGCCGCACGATCGCCCTATTTTGCGAGTTTAC [PL007]”: the IC50 in data set [1] (Bz-dU at every n, anti-PD-L1 antibody 1.2 nM) was 4.7 nM.

“GAGTGACCGTCTGCCTGTGTATGCCGCACGATCGCCCTATTTTGCGAGTTTACTCACAGCCACACCACCAGCC [PL002]” gave an IC50 in data set [1] (Bz-dU at every n) of 31.3 nM. Also, the Kd in data set [2] (Bz-dU at every n, Bmax 0.05, 40 mM HEPES, 102 mM NaCl, 5 mM KCl) came to 0.18 nM.

“GCCTGTGTATGCCGCACGATCGCCCTATTTTGCGAGTTTACTCACAGCC [PL005]” returned an IC50 in data set [1] (Bz-dU at every n) of 12.6 nM.

For “GAGTGACCGTCTGCCTGTTAAGCGGCTAAGTTTTTGATTGTACCTTAGTGCCCTTACCAGCCACACCACCAGCC [PL010]”, the Kd in data set [2] (Bz-dU at every n, Bmax 0.06) was 0.93 nM.

As for “GCCTGATGAAAAGTTTTTGATTGTACCTTAGTGCACTCAACAGTGCAGCC [PL016]”, in data set [1] (Bz-dU at every n), the IC50 is 3.3 nM.

Sequence “GCCTGATGAAAAGTTTTTGATTGTACCTTAGTGC [PL003]” displayed an IC50 in data set [1] (Bz-dU at every n) of 6.3 nM.
